± gives the standard deviation.
Assay: protein stability index of a GFP-peptide fusion (GPS, HEK-293T) (PSI 1-6); higher = more stable
Details: c terminus: a fixed tail appended
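Further: 24-mer peptide tiles fused after GFP, lentivirally expressed, FACS-sorted into six equal bins by GFP/DsRed ratio, decoded by Illumina sequencing, PSI is the read-weighted mean bin number.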

| Sequence | protein stability index (treatment: DMSO) | protein stability index (treatment: MLN4924 1 uM, 8 h) |
| --- | --- | --- |
| PPSYGGSSRYDDYSSSRDGYGGSR [RBMX] | 4.612 ± 0.036 | 4.66 ± 0.33 |
| PPVVAHYDMSDTNSDPEVVNVDNL [C18orf25] | 5.43 ± 0.18 | 5.46 ± 0.31 |
| PQDLAPQVSAHHRSQESLTSQESE [TBC1D10A] | 5.64 ± 0.15 | 5.56 ± 0.23 |
| PQGLFVEALSVPLSLCVSSHLALP [CLPTM1] | 2.96 ± 0.59 | 2.91 ± 0.41 |
| PQSSKSTVVKSLIDNSSEIEDEDQ [FAN1] | 5.65 ± 0.14 | 5.6 ± 0.25 |
| PRSAEPGYLVTKVVAVDRDSGQNA [PCDHGA10] | 4.77 ± 0.16 | 4.7 ± 0.29 |
| PSLLELAWEKLLAAFPNLANLSRT [KLHDC10] | 2.56 ± 0.21 | 2.55 ± 0.24 |
| PSNARGPILSRSTSTGSAASSGSN [SPRY1] | 4.96 ± 0.17 | 5.01 ± 0.12 |
| PSPSTLEPHPRPLLQRELMVPGTR [TNXB] | 4.4 ± 0.24 | 4.36 ± 0.59 |
| PSPVRAPAPSPAKEERKTEVVMNS [PALM] | 5.35 ± 0.36 | 5.53 ± 0.13 |
| PSQDERMRSPQNLHSQEDDDSSSE [NOL4L] | 5.62 ± 0.14 | 5.56 ± 0.21 |
| PSQRLVQNCLWTLRNLSDAATKQE [CTNNB1] | 3.31 ± 0.18 | 3.19 ± 0.25 |
| PSSMDLLIQDSPDSSTSPKGKQPT [NANOGP8] | 5.2 ± 0.2 | 5.3 ± 0.18 |
| PSSQKALLLELKGLQEEPVEGFRV [CDC34] | 3.68 ± 0.14 | 3.47 ± 0.14 |
| PTDRNLCHFQALGCRTTHSNQEVL [PYCR3] | 2.49 ± 0.35 | 2.37 ± 0.22 |
| PTFRFLTKMWHPNIYENGDVCISI [UBE2R2] | 3.01 ± 0.68 | 3.15 ± 0.71 |
| PTHQAHTVGFLDEAIQPYRDRLRS [TRIM15] | 4.52 ± 0.039 | 4.44 ± 0.13 |
| PVAQSTDAIRGKVGYTRGLHVWQI [SPSB1] | 2.15 ± 0.13 | 2.21 ± 0.17 |
| PVTRNERHSYQVYRQPIPVQELVL [NET1] | 2.79 ± 0.23 | 2.88 ± 0.23 |
| QAGSSQGLSLCQFQNFSLHDPLYG [LPCAT4] | 3 ± 0.41 | 2.98 ± 0.31 |
| QAIDATVAAELLNHLLESMPLREG [HES6] | 2.43 ± 0.41 | 2.3 ± 0.28 |
| QALQAGPEGARRGLGVLRALGSRG [FANCE] | 4.38 ± 0.33 | 4.31 ± 0.26 |
| QAPPVPGPPPGAPHTPQTPGQGGP [NR2F2] | 5.22 ± 0.56 | 5.05 ± 0.38 |

| Sequence | protein stability index (treatment: DMSO) | protein stability index (treatment: MLN4924 1 uM, 8 h) |
| --- | --- | --- |
| QEQEIDGKSLLLMTRNDVLTGLQL [SAMD13] | 3.23 ± 0.23 | 3.36 ± 0.24 |
| QEVLSLRRENSTLDVECHEKEKHV [SASS6] | 5.2 ± 0.38 | 5.52 ± 0.4 |
| QEYQVLLDVRARLECEINTYRSLL [KRT33B] | 2.25 ± 0.34 | 2.19 ± 0.26 |
| QGKDWGFKKFIRRDFLLDEANGLL [SPOPL] | 2.72 ± 0.27 | 2.31 ± 0.23 |
| QGRFCTIFRSYSRGAQGILLVYDI [RAB40C] | 2.74 ± 0.61 | 3.1 ± 0.64 |
| QHECVNTDDSYSCHCLKGFTLNPD [MATN2] | 4.04 ± 0.16 | 4.15 ± 0.25 |
| QHNLRDSLENTLTESEAHYSSQLS [KRT34] | 5.066 ± 0.033 | 4.99 ± 0.23 |
| QKCHSIGETDEVTKTEDRELVLRK [ZSCAN9] | 5.32 ± 0.3 | 5.37 ± 0.2 |
| QKLLEQTQIIGEQNARLAELERKL [FBXO28] | 4.15 ± 0.082 | 4.24 ± 0.38 |
| QKPEFQDLSVEERSFVEKHRWPSN [RHOBTB3] | 4.08 ± 0.34 | 4.04 ± 0.17 |
| QLLILLQNCTDEGEREAIQKSVTR [POP5] | 3.91 ± 0.26 | 4.12 ± 0.27 |
| QLQFLIRYHRFISFALYLAGFCMF [CDS1] | 2.07 ± 0.062 | 2.32 ± 0.52 |
| QMREAFATAFSKLKPESSQQPGQD [ZBED1] | 4.57 ± 0.19 | 4.62 ± 0.094 |
| QPVKTAGEITQHNVTELLRDVAAW [DNAAF3] | 3.73 ± 0.32 | 3.75 ± 0.27 |
| QPVSLRRRKREVLVEDMVSQEEAQ [ZNF24] | 5.07 ± 0.25 | 5.34 ± 0.33 |
| QQCVDKESSLGSESEEEEEFYDAD [SLC22A15] | 5.52 ± 0.45 | 5.33 ± 0.33 |
| QQQRQRPPRPPPRGTPPRRHSFRK [N4BP2L1] | 4.44 ± 0.16 | 4.75 ± 0.26 |
| QRLGIPKDPRQWTETHVRDWVMWA [ETS1] | 2.37 ± 0.31 | 2.48 ± 0.3 |
| QRTIMKPLEYQFKSQIMSLSHSPQ [TLE6] | 2.89 ± 0.26 | 3.2 ± 0.23 |
| QSILLNTRLQDCYVDSPALTNIWM [C22orf31] | 2.24 ± 0.24 | 2.1 ± 0.36 |
| QSQLSMKAGLENSLAETECRYATQ [KRT15] | 4.38 ± 0.23 | 4.46 ± 0.17 |
| QSYFKTIEDFQQKILLTKSENARL [KRT36] | 3.05 ± 0.42 | 2.77 ± 0.23 |
| QSYPLCIYLINQKWFGRKRTLSAF [SLC22A15] | 2.46 ± 0.47 | 2.2 ± 0.61 |

| Sequence | protein stability index (treatment: DMSO) | protein stability index (treatment: MLN4924 1 uM, 8 h) |
| --- | --- | --- |
| QTKQVYDAVGMLGIEEVTYENCLQ [NLN] | 3.56 ± 0.4 | 3.73 ± 0.53 |
| QWSSDVAPTSTCRTSVGVAVLGGF [KLHL20] | 2.69 ± 0.58 | 2.71 ± 0.86 |
| QYEGHVNEYAYLPLHVHEEEGILV [DCAF4] | 3.19 ± 0.13 | 3.17 ± 0.27 |
| QYLEEERHMREENLRLQRKLQREM [CCDC6] | 4.24 ± 0.22 | 4.16 ± 0.42 |
| QYVITHAKVNILLVENDQQLQKIL [ACSBG2] | 2.5 ± 0.58 | 2.13 ± 0.2 |
| RAFKIKDFANTIPGHGGIMDRFDC [CDS1] | 2.41 ± 0.28 | 2.76 ± 0.27 |
| RAKLDELEGALHQAKEELARMLRE [KRT71] | 2.97 ± 0.36 | 3.7 ± 0.33 |
| RAPVVGVRVNVLLSRYLIEPCGPG [DLC1] | 2.45 ± 0.7 | 2.79 ± 0.86 |
| RAVNSLSMENANQENEEKEQVANK [BEX1] | 5.52 ± 0.24 | 5.5 ± 0.34 |
| RDSFMRHRGHCERRHRLGGVGAVP [ZBTB22] | 3.22 ± 0.35 | 3.25 ± 0.4 |
| REGALRAALQRSLAAALAQHSVPL [TRADD] | 2.25 ± 0.3 | 2.28 ± 0.2 |
| RELNLPFGGMKSSGIGREGAKDSY [ALDH8A1] | 4.08 ± 0.12 | 4.16 ± 0.37 |
| RERDSVPKPSVLFLHPDLGVGGAE [ALG2] | 4.08 ± 0.41 | 4.21 ± 0.16 |
| RETASLKLLPHQPRIVEMKKGSNG [PDZK1] | 3.75 ± 0.31 | 3.85 ± 0.32 |
| REVAKELGIPYYETSVVAQFGIKD [RHOBTB2] | 3.2 ± 0.43 | 3.39 ± 0.27 |
| RFKDKSSEEAVREVHRLIEGKAPI [TPPP] | 4.6 ± 0.15 | 4.58 ± 0.18 |
| RFLGEGHHRVQENQMDKARRHPQG [CHGB] | 4.5 ± 0.44 | 4.62 ± 0.38 |
| RFNLILADTNSDRLFTVNDVKVGG [DCAF4] | 2.44 ± 0.15 | 2.31 ± 0.4 |
| RFQDLVLRMLEYEPAARISPLGAL [DYRK1B] | 2.67 ± 0.47 | 2.4 ± 0.43 |
| RGDLWISWEEGMKVFEELLLDADW [CRY1] | 2.31 ± 0.41 | 2.4 ± 0.29 |
| RGKIHAFRGQILGFWEEERPFWEE [CCDC70] | 2.42 ± 0.14 | 2.47 ± 0.24 |
| RGRMPPTQPTHGQFALTNGDPLNC [NR2F2] | 4.06 ± 0.12 | 3.97 ± 0.26 |
| RISSPQVEEGDSRFLANEVLQENY [WEE1] | 4.83 ± 0.44 | 4.91 ± 0.13 |

| Sequence | protein stability index (treatment: DMSO) | protein stability index (treatment: MLN4924 1 uM, 8 h) |
| --- | --- | --- |
| RKAAKSLIKLGLERFHGVGILGFN [ACSBG2] | 2.64 ± 0.49 | 2.51 ± 0.35 |
| RKFWWKNVKMIVLICVIVFIIILF [VAMP8] | 3.13 ± 0.32 | 2.98 ± 0.3 |
| RKRRRNGSKEGNHHSTQPKRNKRN [FAM104B] | 5.22 ± 0.38 | 4.92 ± 0.48 |
| RLALRQRLKCRSFKWYLENVYPEM [GALNT9] | 1.95 ± 0.22 | 2.35 ± 0.18 |
| RLCLPALSQMGAQSSGKILLCPLC [TRIM15] | 2.35 ± 0.3 | 2.41 ± 0.21 |
| RLKLLKDREVDAATSATSHTRSLN [FBF1] | 4.31 ± 0.32 | 4.41 ± 0.16 |
| RLLVGLALATLRVLRGLARPEHPP [TMEM175] | 2.02 ± 0.42 | 2.35 ± 0.43 |
| RLPFLSAFERQQVENRVVEEAKGL [ZBED1] | 4.17 ± 0.14 | 4.2 ± 0.22 |
| RLRGKLRAEIENLHRTFDPHFLRV [MOG] | 2.48 ± 0.18 | 2.44 ± 0.28 |
| RLSVLLNLLPAAGELQESGLALCP [SMG5] | 2.02 ± 0.39 | 2.07 ± 0.18 |
| RLVESLSTQIRALTEQQEQLRGQL [RASAL3] | 2.38 ± 0.21 | 2.34 ± 0.26 |
| RLWSHRSYKARLPLRLFLIIANTM [SCD] | 2.29 ± 0.54 | 2.13 ± 0.23 |
| RLYRLKLEELTKLQNNCTSSITRQ [TMEM120A] | 2.62 ± 0.092 | 2.81 ± 0.3 |
| RNGMASEGLNSSLCSPGHERRGTP [PSD2] | 4.72 ± 0.34 | 4.61 ± 0.28 |
| RNLARSQSVKMKDKLKIDLLPDGR [TAF7L] | 4.09 ± 0.28 | 4.25 ± 0.2 |
| RNLSYTCRANRNCPIDQHHRNQCQ [NR2F2] | 3.32 ± 0.1 | 3.36 ± 0.24 |
| RNLYAYIQKLTQIETGENVTGMEL [PTPRD] | 2.41 ± 0.26 | 2.29 ± 0.53 |
| RPIPTPVGSVHVDSGASAITRESH [CSNK1G1] | 4.86 ± 0.33 | 4.9 ± 0.27 |
| RRDYLLLVMEGTDDGRLLEYDTVT [APMAP] | 2.26 ± 0.32 | 2.72 ± 0.13 |
| RRERELQHAALGGTATRQNNWPPL [SCAMP3] | 3.54 ± 0.16 | 3.82 ± 0.21 |

From the supplement of paper PMC10567573
